B1: Ras and Rab interactor 1 (Homo sapiens), Q13671 (parent)
chain: MESPGESGAGSPGAPSPSSFTTGHLAREKPAQDPLYDVPNASGGQAGGPQRPGRVVSLRERLLLTRPVWLQLQANAAAALHMLRTEPPGTFLVRKSNTRQCQALCMRLPEASGPSFVSSHYILESPGGVSLEGSELMFPDLVQLICAYCHTRDILLLPLQLPRAIHHAATHKELEAISHLGIEFWSSSLNIKAQRGPAGGPVLPQLKARSPQELDQGTGAALCFFNPLFPGDLGPTKREKFKRSFKVRVSTETSSPLSPPAVPPPPVPVLPGAVPSQTERLPPCQLLRRESSVGYRVPAGSGPSLPPMPSLQEVDCGSPSSSEEEGVPGSRGSPATSPHLGRRRPLLRSMSAAFCSLLAPERQVGRAAAALMQDRHTAAGQLVQDLLTQVRAGPEPQELQGIRQALSRARAMLSAELGPEKLLSPKRLEHVLEKSLHCSVLKPLRPILAARLRRRLAADGSLGRLAEGLRLARAQGPGAFGSHLSLPSPVELEQVRQKLLQLLRTYSPSAQVKRLLQACKLLYMALRTQEGEGAGADEFLPLLSLVLAHCDLPELLLEAEYMSELLEPSLLTGEGGYYLTSLSASLALLSGLGQAHTLPLSPVQELRRSLSLWEQRRLPATHCFQHLLRVAYQDPSSGCTSKTLAVPPEASIATLNQLCATKFRVTQPNTFGLFLYKEQGYHRLPPGALAHRLPTTGYLVYRRAEWPETQGAVTEEEGSGQSEARSRGEEQGCQGDGDAGVKASPRDIREQSETTAEGGQGQAQEGPAQPGEPEAEGSRAAEE
B2: Tyrosine-protein kinase ABL2 (Homo sapiens), P42684 (parent)
chain: MGQQVGRVGEAPGLQQPQPRGIRGSSAARPSGRRRDPAGRTTETGFNIFTQHDHFASCVEDGFEGDKTGGSSPEALHRPYGCDVEPQALNEAIRWSSKENLLGATESDPNLFVALYDFVASGDNTLSITKGEKLRVLGYNQNGEWSEVRSKNGQGWVPSNYITPVNSLEKHSWYHGPVSRSAAEYLLSSLINGSFLVRESESSPGQLSISLRYEGRVYHYRINTTADGKVYVTAESRFSTLAELVHHHSTVADGLVTTLHYPAPKCNKPTVYGVSPIHDKWEMERTDITMKHKLGGGQYGEVYVGVWKKYSLTVAVKTLKEDTMEVEEFLKEAAVMKEIKHPNLVQLLGVCTLEPPFYIVTEYMPYGNLLDYLRECNREEVTAVVLLYMATQISSAMEYLEKKNFIHRDLAARNCLVGENHVVKVADFGLSRLMTGDTYTAHAGAKFPIKWTAPESLAYNTFSIKSDVWAFGVLLWEIATYGMSPYPGIDLSQVYDLLEKGYRMEQPEGCPPKVYELMRACWKWSPADRPSFAETHQAFETMFHDSSISEEVAEELGRAASSSSVVPYLPRLPILPSKTRTLKKQVENKENIEGAQDATENSASSLAPGFIRGAQASSGSPALPRKQRDKSPSSLLEDAKETCFTRDRKGGFFSSFMKKRNAPTPPKRSSSFREMENQPHKKYELTGNFSSVASLQHADGFSFTPAQQEANLVPPKCYGGSFAQRNLCNDDGGGGGGSGTAGGGWSGITGFFTPRLIKKTLGLRAGKPTASDDTSKPFPRSNSTSSMSSGLPEQDRMAMTLPRNCQRSKLQLERTVSTSSQPEENVDRANDMLPKKSEESAAPSRERPKAKLLPRGATALPLRTPSGDLAITEKDPPGVGVAGVAAAPKGKEKNGGARLGMAGVPEDGEQPGWPSPAKAAPVLPTTHNHKVPVLISPTLKHTPADVQLIGTDSQGNKFKLLSEHQVTSSGDKDRPRRVKPKCAPPPPPVMRLLQHPSICSDPTEEPTALTAGQSTSETQEGGKKAALGAVPISGKAGRPVMPPPQVPLPTSSISPAKMANGTAGTKVALRKTKQAAEKISADKISKEALLECADLLSSALTEPVPNSQLVDTGHQLLDYCSGYVDCIPQTRNKFAFREAVSKLELSLQELQVSSAAAGVPGTNPVLNNLLSCVQEISDVVQR
partner: B1 chain

Variants of: B1
Conditions: with abl2_human ABL2, P42684

effect of a mutation on the interaction | Variant
decreasing interaction | Y36F;Y121F;Y148F

Variants of: B2
Conditions: with rin1_human RIN1, Q13671

effect of a mutation on the interaction | Variant
decreasing interaction | K317R

Source: IntAct's records for PubMed 15886098
